Literature values, collected in article PMC11612555, “Impact of camel milk lactoferrin peptides against breast cancer cells: in silico and in vitro study” (Frontiers in Pharmacology, 2024).

Legend:
[1] = tested on: MDAmb231 cells; design: method as in Rascón-Cruz et al., 2021b; conditions: against MDAmb231; ref Rascón-Cruz et al., 2021b
[2] = tested on: HeLa cells; design: method as in Rascón-Cruz et al., 2021b; conditions: against HeLa; ref Rascón-Cruz et al., 2021b
[3] = tested on: T-47D; design: method as in Zhang et al., 2014; conditions: ref Zhang et al., 2014
[4] = tested on: MDA-MB-231; design: method as in Zhang et al., 2014; conditions: ref Zhang et al., 2014
[5] = tested on: Hs578T; design: method as in Zhang et al., 2014; conditions: ref Zhang et al., 2014
[6] = tested on: MCF-7; design: method as in Zhang et al., 2014; conditions: ref Zhang et al., 2014
[7] = tested on: MCF-10-2A; design: method as in Zhang et al., 2014; conditions: normal breast cell line MCF-10-2A; ref Zhang et al., 2014

Molecule | selective index [1] | selective index [2] | proliferation [3] | proliferation [4] | proliferation [5] | proliferation [6] | proliferation [7]
lactoferrin (protein, UniProt P02788 20-710, looked up) Lactotransferrin: GRRRSVQWCAVSQPEATKCFQWQRNMRKVRGPPVSCIKRDSPIQCIQAIAENRADAVTLDGGFIYEAGLAPYKLRPVAAEVYGTERQPRTHYYAVAVVKKGGSFQLNELQGLKSCHTGLRRTAGWNVPIGTLRPFLNWTGPPEPIEAAVARFFSASCVPGADKGQFPNLCRLCAGTGENKCAFSSQEPYFSYSGAFKCLRDGAGDVAFIRESTVFEDLSDEAERDEYELLCPDNTRKPVDKFKDCHLARVPSHAVVARSVNGKEDAIWNLLRQAQEKFGKDKSPKFQLFGSPSGQKDLLFKDSAIGFSRVPPRIDSGLYLGSGYFTAIQNLRKSEEEVAARRARVVWCAVGEQELRKCNQWSGLSEGSVTCSSASTTEDCIALVLKGEADAMSLDGGYVYTAGKCGLVPVLAENYKSQQSSDPDPNCVDRPVEGYLAVAVVRRSDTSLTWNSVKGKKSCHTAVDRTAGWNIPMGLLFNQTGSCKFDEYFSQSCAPGSDPRSNLCALCIGDEQGENKCVPNSNERYYGYTGAFRCLAENAGDVAFVKDVTVLQNTDGNNNEAWAKDLKLADFALLCLDGKRKPVTEARSCHLAMAPNHAVVSRMDKVERLKQVLLHQQAKFGRNGSDCPDKFCLFQSETKNLLFNDNTECLARLHGKTTYEKYLGPQYVAGITNLKKCSTSPLLEACEFLRK | 11.68 | 9.59 | – | – | – | – | –
bovine lactoferrin (protein, UniProt P24627 20-708, looked up, lactoferrin from bovine milk) Lactotransferrin: APRKNVRWCTISQPEWFKCRRWQWRMKKLGAPSITCVRRAFALECIRAIAEKKADAVTLDGGMVFEAGRDPYKLRPVAAEIYGTKESPQTHYYAVAVVKKGSNFQLDQLQGRKSCHTGLGRSAGWIIPMGILRPYLSWTESLEPLQGAVAKFFSASCVPCIDRQAYPNLCQLCKGEGENQCACSSREPYFGYSGAFKCLQDGAGDVAFVKETTVFENLPEKADRDQYELLCLNNSRAPVDAFKECHLAQVPSHAVVARSVDGKEDLIWKLLSKAQEKFGKNKSRSFQLFGSPPGQRDLLFKDSALGFLRIPSKVDSALYLGSRYLTTLKNLRETAEEVKARYTRVVWCAVGPEEQKKCQQWSQQSGQNVTCATASTTDDCIVLVLKGEADALNLDGGYIYTAGKCGLVPVLAENRKSSKHSSLDCVLRPTEGYLAVAVVKKANEGLTWNSLKDKKSCHTAVDRTAGWNIPMGLIVNQTGSCAFDEFFSQSCAPGADPKSRLCALCAGDDQGLDKCVPNSKEKYYGYTGAFRCLAEDVGDVAFVKNDTVWENTNGESTADWAKNLNREDFRLLCLDGTRKPVTEAQSCHLAVAPNHAVVSRSDRAAHVKQVLLHQQALFGKNGKNCPDKFCLFKSETKNLLFNDNTECLAKLGGRPTYEEYLGTEYVTAIANLKKCSTSPLLEACAFLTR | – | – | inhibited | inhibited | inhibited | inhibited | not
